Test results published in patent publication US20100306864A1 (OTSUKA CHEMICAL, published 2010).

T1: CD20 (on Daudi cells) (human, UniProt P11836 1-297)
T1 construct: whole, on cells; The target is the CD20 naturally present on Daudi cells; also called antigen
T1 sequence (looked up): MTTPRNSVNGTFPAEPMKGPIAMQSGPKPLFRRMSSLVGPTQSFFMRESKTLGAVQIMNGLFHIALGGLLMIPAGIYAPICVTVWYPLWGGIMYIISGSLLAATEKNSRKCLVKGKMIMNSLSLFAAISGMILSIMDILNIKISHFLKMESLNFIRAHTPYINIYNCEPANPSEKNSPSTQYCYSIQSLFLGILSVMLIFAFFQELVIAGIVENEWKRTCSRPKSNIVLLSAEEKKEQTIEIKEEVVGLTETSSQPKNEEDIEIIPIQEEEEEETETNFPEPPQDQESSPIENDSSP


What was measured:
CD20 (on Daudi cells) = biological target: T1, CD20 (on Daudi cells); test: cell ELISA on Daudi cells, HRP anti-human IgG, OD450
Procedure: Daudi cells (ATCC catalog No. CCL-213) were dispensed into a 96 well plate at a density of 6×10⁴ cells/well, each of the antibody mutants (Glu293Cys, Glu294Cys, Tyr296Cys, Ser298Cys, or Tyr300Cys) obtained in Example 1 or wild type antibody was added thereto, and a reaction was carried out at 4° C. for 1 hour. Following this, washing was carried out with 3 mM EDTA-0.5% BSA-PBS(−) (washing buffer). Subsequently, 50 μL/well of an HRP-labeled anti-human IgG antibody (Zymed) diluted 500 times with the washing buffer was added, and a reaction was carried out at 4° C. for 1 hour. Cells after the reaction were washed with the washing buffer, 100 μL/well of TMB substrate (KPL) was added thereto so as to cause coloration, the reaction was stopped by adding 100 μL/well of 1 M HCl (Wako), and the OD value at 450 nm was measured using a plate reader (VersaMax, Molecular Devices).

[1] = biological target: T2, CD16 (NK cell Fcy receptor III), expressed on CHO-K1 cells (human, UniProt P08637 17-254); test: flow cytometry on CD16-expressing CHO-K1 cells; biotin anti-human IgG kappa L chain antibody and PE-streptavidin
T2 construct: whole, on cells; also called CD16-expressing CHO-K1 cells
T2 sequence (P08637 17-254): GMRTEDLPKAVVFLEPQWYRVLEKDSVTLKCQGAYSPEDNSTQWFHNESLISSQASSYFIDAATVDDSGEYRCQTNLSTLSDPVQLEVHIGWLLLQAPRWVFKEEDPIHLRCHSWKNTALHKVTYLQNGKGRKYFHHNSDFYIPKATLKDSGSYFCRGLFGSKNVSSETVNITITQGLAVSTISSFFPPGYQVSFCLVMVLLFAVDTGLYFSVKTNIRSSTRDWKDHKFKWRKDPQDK
Procedure: CD16-expressing CHO-K1 cells were taken at 6×10⁴ cells/tube, each of the antibody mutants obtained in Example (Tyr296Cys or Ser298Cys) or wild type antibody was added thereto to give a total amount of 50 μL/tube, and a reaction was carried out at 4° C. for 1 hour. Following this, washing was carried out with 3 mM EDTA-0.5% BSA-PBS(−) (washing buffer). Subsequently, a biotin-labeled mouse anti-human IgGκ L chain antibody (Vector Lab) diluted 200 times with the washing buffer was added at 100 μL/tube. After a reaction was carried out at 4° C. for 30 min, washing was carried out with 3 mM EDTA-0.5% BSA-PBS(−), PE-labeled streptavidin (BD-Pharmingen) diluted 400 times with the washing buffer was added at 100 μL/tube, and a reaction was carried out at 4° C. for 30 min. After the reaction was completed, washing was carried out twice with 3 mM EDTA-0.5% BSA-PBS(−), and a CD16-binding anti-CD20 antibody was analyzed using a flow cytometer (FACS Caliber, BecktonDickinson).

Row | binding result (CD20 (on Daudi cells)) | CD16 binding activity relative to wild type (concentrations that gave the same effect) [1] | Binder
1 | binds |  | anti-CD20 chimera antibody H chain constant region amino acid mutant Glu293Cys (antibody, human IgG1, kappa, H chain entry already carries Glu293Cys (Kabat EU index); also called Glu293Cys-modified antibody) heavy: not shown light: QIVLSQSPAILSASPGEKVTMTCRASSSVSYMHWYQQKPGSSPKPWIYAPSNLASGVPARFSGSGSGTSYSLTISRVEAEDAANYYCQQWSFNPPTFGAGTKLELKTVAAPSVFIFPPSDEQLKSGTASVVCLLNNFYPREAKVQWKVDNALQSGNSQESVTEQDSKDSTYSLSSTLTLSKADYEKHKVYACEVTHQGLSSPVTKSFNRGEC
2 | binds |  | anti-CD20 chimera antibody H chain constant region amino acid mutant Tyr300Cys (antibody, human IgG1, kappa, H chain entry already carries Tyr300Cys (Kabat EU index); also called Tyr300Cys-modified antibody) heavy: not shown light: QIVLSQSPAILSASPGEKVTMTCRASSSVSYMHWYQQKPGSSPKPWIYAPSNLASGVPARFSGSGSGTSYSLTISRVEAEDAANYYCQQWSFNPPTFGAGTKLELKTVAAPSVFIFPPSDEQLKSGTASVVCLLNNFYPREAKVQWKVDNALQSGNSQESVTEQDSKDSTYSLSSTLTLSKADYEKHKVYACEVTHQGLSSPVTKSFNRGEC

The remaining lines, values behind:

Row | Binder | binding result (CD20 (on Daudi cells)) | CD16 binding activity relative to wild type (concentrations that gave the same effect) [1]
3 | anti-CD20 chimera antibody (wild type) (antibody, human IgG1, kappa, Mouse anti-CD20 variable regions joined to human IgG1 H chain and human L chain constant regions; also called wild type antibody; wild type anti-CD20 chimera antibody; copies: 2 + 2) heavy: not shown light: QIVLSQSPAILSASPGEKVTMTCRASSSVSYMHWYQQKPGSSPKPWIYAPSNLASGVPARFSGSGSGTSYSLTISRVEAEDAANYYCQQWSFNPPTFGAGTKLELKTVAAPSVFIFPPSDEQLKSGTASVVCLLNNFYPREAKVQWKVDNALQSGNSQESVTEQDSKDSTYSLSSTLTLSKADYEKHKVYACEVTHQGLSSPVTKSFNRGEC | binds | 
4 | anti-CD20 chimera antibody H chain constant region amino acid mutant Tyr296Cys (antibody, human IgG1, kappa, H chain entry already carries Tyr296Cys (Kabat EU index); also called Tyr296Cys mutant; Tyr296Cys-modified antibody; copies: 2 + 2) heavy: not shown light: QIVLSQSPAILSASPGEKVTMTCRASSSVSYMHWYQQKPGSSPKPWIYAPSNLASGVPARFSGSGSGTSYSLTISRVEAEDAANYYCQQWSFNPPTFGAGTKLELKTVAAPSVFIFPPSDEQLKSGTASVVCLLNNFYPREAKVQWKVDNALQSGNSQESVTEQDSKDSTYSLSSTLTLSKADYEKHKVYACEVTHQGLSSPVTKSFNRGEC | binds | ~5 times that of the wild type
5 | anti-CD20 chimera antibody H chain constant region amino acid mutant Ser298Cys (antibody, human IgG1, kappa, H chain entry already carries Ser298Cys (Kabat EU index); also called Ser298Cys mutant; Ser298Cys-modified antibody; copies: 2 + 2) heavy: not shown light: QIVLSQSPAILSASPGEKVTMTCRASSSVSYMHWYQQKPGSSPKPWIYAPSNLASGVPARFSGSGSGTSYSLTISRVEAEDAANYYCQQWSFNPPTFGAGTKLELKTVAAPSVFIFPPSDEQLKSGTASVVCLLNNFYPREAKVQWKVDNALQSGNSQESVTEQDSKDSTYSLSSTLTLSKADYEKHKVYACEVTHQGLSSPVTKSFNRGEC | binds | ~10 times that of the wild type
6 | anti-CD20 chimera antibody H chain constant region amino acid mutant Glu294Cys (antibody, human IgG1, kappa, H chain entry already carries Glu294Cys (Kabat EU index); also called Glu294Cys-modified antibody) heavy: not shown light: QIVLSQSPAILSASPGEKVTMTCRASSSVSYMHWYQQKPGSSPKPWIYAPSNLASGVPARFSGSGSGTSYSLTISRVEAEDAANYYCQQWSFNPPTFGAGTKLELKTVAAPSVFIFPPSDEQLKSGTASVVCLLNNFYPREAKVQWKVDNALQSGNSQESVTEQDSKDSTYSLSSTLTLSKADYEKHKVYACEVTHQGLSSPVTKSFNRGEC | binds | 
